# In paper doi:10.1101/2025.01.10.632437 (bioRxiv, 2025):
# Like-named read-outs stand apart in the source and are kept apart here.
# B1: murine TMEM16F with C-terminal vYFP and SBP-tag (natural protein, mouse)
# chain: QMMTRKVLLNMELEEDDDEDGDIVLENFDQTIVCPTFGSLENQQDFRTPEFEEFNGKPDSLFFTDGQRRIDFILVYEDESKKENNKKGTNEKQKRKRQAYESNLICHGLQLEATRSVSDDKLVFVKVHAPWEVLCTYAEIMHIKLPLKPNDLKTRSPFGNLNWFTKVLRVNESVIKPEQEFFTAPFEKSRMNDFYILDRDSFFNPATRSRIVYFILSRVKYQVMNNVNKFGINRLVSSGIYKAAFPLHDCRFNYESEDISCPSERYLLYREWAHPRSIYKKQPLDLIRKYYGEKIGIYFAWLGYYTQMLLLAAVVGVACFLYGYLDQDNCTWSKEVCDPDIGGQILMCPQCDRLCPFWRLNITCESSKKLCIFDSFGTLIFAVFMGVWVTLFLEFWKRRQAELEYEWDTVELQQEEQARPEYEAQCNHVVINEITQEEERIPFTTCGKCIRVTLCASAVFFWILLIIASVIGIIVYRLSVFIVFSTTLPKNPNGTDPIQKYLTPQMATSITASIISFIIIMILNTIYEKVAIMITNFELPRTQTDYENSLTMKMFLFQFVNYYSSCFYIAFFKGKFVGYPGDPVYLLGKYRSEECDPGGCLLELTTQLTIIMGGKAIWNNIQEVLLPWVMNLIGRYKRVSGSEKITPRWEQDYHLQPMGKLGLFYEYLEMIIQFGFVTLFVASFPLAPLLALVNNILEIRVDAWKLTTQFRRMVPEKAQDIGAWQPIMQGIAILAVVTNAMIIAFTSDMIPRLVYYWSFSIPPYGDHTYYTMDGYINNTLSVFNITDFKNTDKENPYIGLGNYTLCRYRDFRNPPGHPQEYKHNIYYWHVIAAKLAFIIVMEHIIYSVKFFISYAIPDVSKITKSKIKREKYLTQKLLHESHLKDLTKNMGIIAERIGGTVDNSVRPKLE
# B2: bovine TMEM206/PACC1 with C-terminally fused venus-YFP followed by a streptavidin binding peptide tag (natural protein)
# chain: not shown
# B3: bovine proton-activated Cl- channel TMEM206/PACC1 without vYFP (conventional purification) (natural protein)
# chain: not shown
# How the values were obtained:
# Assay in all cases: cryo-EM structure
# cryo-EM structure [1] = molecular target: the molecule itself
# cryo-EM structure [2] = molecular target: the molecule itself; remark: listed apart in the source
# cryo-EM structure [3] = molecular target: the molecule itself; remark: listed apart in the source
protein,measurement,setting,value
B1,stoichiometry N,cryo-EM structure [1],2
B2,binding result,cryo-EM structure [2],binds
B3,binding result,cryo-EM structure [3],binds
